72 sequences from the supplement of paper PMC10567573 can be followed below.

The nature of this data set: protein stability index of a GFP-peptide fusion (GPS, HEK-293T) (PSI 1-6); higher = more stable.
Where [1] appears, read: treatment: DMSO, c terminus: a fixed tail appended.
Setting [2] is: treatment: MLN4924 1 uM, 8 h, c terminus: a fixed tail appended.

± gives the standard deviation.
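Also: 24-mer peptide tiles fused after GFP, lentivirally expressed, FACS-sorted into six equal bins by GFP/DsRed ratio, decoded by Illumina sequencing, PSI is the read-weighted mean bin number.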

KSDSPTGDVLLDETLKHIKATEPT [GOLPH3L]: the protein stability index turned out to be 5.16 ± 0.27 under setting [1] and 5.26 ± 0.15 under setting [2].
The like results for KSHVMDQAINNAINYLGAESLRPL [IKZF1] were, in that order, 2.58 ± 0.24 and 2.49 ± 0.31.
The like results for KSISPWKSPPQLRQFLPEEFMKTL [DENND6A] were, in that order, 2.47 ± 0.088 and 2.61 ± 0.3.
With KSLSIQYLELDRLVWRNSIRSSFI [FBXO39], the protein stability index turned out to be 2.51 ± 0.64 under setting [1] and 2.28 ± 0.17 under setting [2].
On the same counts, the results for KTESSGIETEPTVHHLPLSTEKVV [EPB41L3] are 5.21 ± 0.14 and 5 ± 0.25.
On to KTMQSEETRVWHRRDGKWQNVHFH [CAMK2D], for which the protein stability index by setting is: under setting [1], 2.85 ± 0.15; under setting [2], 3.14 ± 0.16.
Consider KTQSELASESEHIPKPQSTGWFGG [MIA2], for which the protein stability index was 3.97 ± 0.12 under setting [1] and 4.43 ± 0.096 under setting [2].
On the same counts, the results for KTSLAPYVKVFEHFLENLDKSRKG [PRIM1] are 2.54 ± 0.39 and 3.12 ± 0.46.
The like results for KVMIHPDPERRPSAMALVKHSVLL [WEE1] were, in that order, 2.22 ± 0.14 and 2.34 ± 0.57.
The like results for KVQNECPGITRVYSIGRSVEGRHL [CPN1] were, in that order, 3.08 ± 0.22 and 3.29 ± 0.5.
For KVSGNRCASPVTGPGSKRDAHFCA [ESR2], the protein stability index by setting is: under setting [1], 2.76 ± 0.44; under setting [2], 2.79 ± 0.16.
The like results for KYRRHFLRFCHNNKKAKRYLLHGL [EIF5] were, in that order, 2.21 ± 0.2 and 2.27 ± 0.19.
On the same counts, the results for LAFKNDIQFWNSRQSLEGLSVRSV [CLPTM1] are 2.45 ± 0.18 and 2.5 ± 0.14.
The like results for LAIKAITSSAKVDMTFEEEAQLLQ [FKBP8] were, in that order, 2.95 ± 0.19 and 3.29 ± 0.34.
As for LAMWTTALLHQAETLQPSVWFGGR [TMEM175], the protein stability index runs as follows: under setting [1], 3 ± 0.56; under setting [2], 2.82 ± 0.86.
On the same counts, the results for LCGPHAKAPYLCEATHEPAAARIR are 3.75 ± 0.2 and 3.61 ± 0.24.
The like results for LDNTKKKMEIYQKENKDVIQKNKL [MNAT1] were, in that order, 4.44 ± 0.2 and 4.34 ± 0.18.
On the same counts, the results for LDPVAETAIRQLTEPSGRVAKKTP [C2CD2L] are 5.66 ± 0.17 and 5.18 ± 0.47.
On to LEGLNLSILKAMGKTKKDYQEASN [NECAB1], for which the protein stability index was determined as 3.78 ± 0.14 under setting [1] and 3.91 ± 0.22 under setting [2].
On the same counts, the results for LEKWMQKNVEENLYSSSLGGGVAT [GLT8D2] are 3.44 ± 0.2 and 3.69 ± 0.26.
On the same counts, the results for LELLEEVLALGLRTDVGITHQHWQ [RSAD1] are 2.3 ± 0.72 and 2.13 ± 0.23.
On the same counts, the results for LEQEEERLSKEWEDSKRWSKMDQL [CHGA] are 4.81 ± 0.24 and 4.73 ± 0.17.
For the sequence LETNQQHFHALCHSLLVSTHVPR [M1AP], the protein stability index by setting is: (treatment: DMSO, c terminus: native) 2.48 ± 0.43; (treatment: MLN4924 1 uM, 8 h, c terminus: native) 3.13 ± 0.9.
As for LEVAMEEEGLADEEKKLRRSQHAR [STK38L], the protein stability index is, setting by setting: under setting [1], 5.43 ± 0.3; under setting [2], 5.27 ± 0.35.
The like results for LEVPAGSRLNLTGLGYFSCHSHTV [CCDC3] were, in that order, 2.57 ± 0.33 and 2.2 ± 0.25.
On the same counts, the results for LEVSQLEGSLQQPKAQSAMSPYLV [SMG5] are 3.37 ± 0.21 and 3.46 ± 0.21.
On to LFGGFTTDKQPLSDAWTYCISKNE [KLHDC2], for which the protein stability index by setting is: under setting [1], 2.63 ± 0.47; under setting [2], 2.75 ± 0.28.
On the same counts, the results for LGDRDRSRAALVCRKWNQMMYSAE [FBXO39] are 2.72 ± 0.21 and 2.79 ± 0.17.
As for LGHMFMYFLRGSLPWQGLKADTLK [CSNK1G3], the protein stability index is, setting by setting: under setting [1], 2.06 ± 0.26; under setting [2], 2.57 ± 0.98.
The like results for LGKGAFSVVRRCVKVLAGQEYAAK [CAMK2A] were, in that order, 2.61 ± 0.4 and 2.38 ± 0.61.
The like results for LGKLEATIKSLSAELLKANEIIKK [SASS6] were, in that order, 2.44 ± 0.34 and 2.68 ± 0.16.
On the same counts, the results for LGKPDQKDLNENLAATQGLAHMIA [DLC1] are 3.79 ± 0.12 and 3.84 ± 0.23.
In the case of LHPRPDWEHSAPQRLPRSAPPGSL [PCDHGC5], the protein stability index runs as follows: under setting [1], 4.78 ± 0.19; under setting [2], 4.75 ± 0.17.
The like results for LHSEFDEQHGKKVPTVSRPYSFIE [SEC22B] were, in that order, 4.04 ± 0.13 and 4.14 ± 0.24.
With LHVSLGQKLVAAYVLGLLTMVFLR [MOSPD3], the protein stability index was 3.17 ± 0.42 under setting [1] and 2.89 ± 0.28 under setting [2].
The like results for LIFFLFIGVILFSSAVYFAEADEP [KCNA4] were, in that order, 2.19 ± 0.086 and 2.38 ± 0.29.
The like results for LIVPFGLLYSEVTASSLVKINLQG [ADD1] were, in that order, 3.03 ± 0.47 and 2.88 ± 0.36.
The like results for LKDEEAKVLQLTVRCEALTGELET [CCDC89] were, in that order, 3.86 ± 0.15 and 3.71 ± 0.25.
LKKEHPGARDGIRYLEAEFKKGNR [SMG5]: the protein stability index by setting is: under setting [1], 4.35 ± 0.6; under setting [2], 4.29 ± 0.24.
The like results for LKNIELFDKLALRFHGRLLFLKDV [KCTD13] were, in that order, 2.66 ± 0.77 and 2.11 ± 0.15.
On the same counts, the results for LKPAMTQAQDEVEQERRLSEARLS [FCHSD1] are 5.25 ± 0.18 and 5.19 ± 0.25.
Consider LKRKNKQAFLDELESSDLPVALLL [MNAT1], for which the protein stability index turned out to be 2.2 ± 0.42 under setting [1] and 2 ± 0.3 under setting [2].
LKVGGILVMPIEDQLTQIMRTGQN [PCMTD1]: the protein stability index under setting [1] came out at 2.66 ± 0.12 and the protein stability index under setting [2] turned out to be 2.24 ± 0.22.
On the same counts, the results for LLARGTMQPFNYVTLQCLAARALD [FEM1A] are 2.44 ± 0.16 and 2.22 ± 0.29.
On the same counts, the results for LLDATVAGGQTRLQASDRYRDLAG [FCHSD1] are 3.99 ± 0.14 and 3.86 ± 0.12.
On the same counts, the results for LLEESDGEGEPGQGEGPEAGDAEV [NOP53] are 5.62 ± 0.22 and 5.61 ± 0.14.
As to LLETANQTLQAMDSEDFPQAAKQI [FSD1], the protein stability index by setting is: under setting [1], 4.92 ± 0.26; under setting [2], 4.79 ± 0.17.
As to LLLLLLTFFLRTDAETPPRFTRTP [PTPRD], the protein stability index is, setting by setting: under setting [1], 2.32 ± 0.43; under setting [2], 2.36 ± 0.49.
On the same counts, the results for LLPTKSLVALKCTCCYFKFIIEYY [FBXO34] are 2.8 ± 0.59 and 2.83 ± 0.88.
On the same counts, the results for LLQRELAQEDSLNKLALQYGCKVA [LYSMD4] are 2.21 ± 0.34 and 2.52 ± 0.57.
On the same counts, the results for LLRDRTGQQSDTAQLELYQLQVES [SCARA5] are 4.42 ± 0.37 and 4.56 ± 0.13.
In the case of LMKESLQTGDLLSTFHTISPSFQL [PLAGL1], the protein stability index is 2.24 ± 0.13 under setting [1] and 2.17 ± 0.16 under setting [2].
The like results for LMKGGADLFVENMPGFPDNIRPSS [APMAP] were, in that order, 3.66 ± 0.1 and 3.77 ± 0.33.
On the same counts, the results for LNPHVHLVGDDAACIAYIRLTQYM [CAMK2D] are 2.32 ± 0.38 and 2.29 ± 0.66.
LNVFQTVSRMRTQRAFSIQTPEQY [PTPN9]: the protein stability index was 2.38 ± 0.33 under setting [1] and 2.54 ± 0.31 under setting [2].
In the case of LPLSPGVLSSTPDHSFSLELGSEV [ATF4], the protein stability index is 3.72 ± 0.21 under setting [1] and 3.95 ± 0.5 under setting [2].
The like results for LPPCAVRNLQDLARIYIRRTLRNF [PCMTD1] were, in that order, 2.06 ± 0.29 and 2.04 ± 0.26.
As for LPSLGCRTSCSSRPCVPPSCHGYT [KRT34], the protein stability index is 2.32 ± 0.26 under setting [1] and 2.2 ± 0.11 under setting [2].
On the same counts, the results for LQDVIMQVADVPEKPRVPAFACQV [ZNF511] are 2.37 ± 0.28 and 2.69 ± 0.21.
On the same counts, the results for LRDGGGLTPLELLLRQLGRDAGAT [ANKRD9] are 2.79 ± 0.34 and 2.58 ± 0.27.
On the same counts, the results for LRGLPGERGTPGLPGPKGDDGKLG [SCARA5] are 4.96 ± 0.33 and 4.96 ± 0.19.
With LRKHRELCDVVLVVGAKKIYAHRV [KLHL20], the protein stability index reads like this: under setting [1], 2.67 ± 0.5; under setting [2], 2.3 ± 0.43.
On the same counts, the results for LRLENSSLFSQALKDEEAKVLQLT [CCDC89] are 3.6 ± 0.41 and 3.62 ± 0.61.
On the same counts, the results for LRPQVVTDDDGQAPEAKDGSSFSG [APMAP] are 5.22 ± 0.26 and 5.31 ± 0.15.
LRSARGSRGGTRGWLPSHEGHLDD [RBMY1A1]: the protein stability index turned out to be 4.7 ± 0.35 under setting [1] and 4.78 ± 0.17 under setting [2].
On the same counts, the results for LSASQKALKEKEKASWSSLSMDEK [COX4I1] are 4.61 ± 0.28 and 4.84 ± 0.22.
On the same counts, the results for LSCLGQQQQEPPLAMGTVSLGQLP [PLAGL1] are 3.75 ± 0.32 and 3.59 ± 0.5.
For LSDLEDLEEEEEEEEEAEDEEVVA [IRX6], the protein stability index turned out to be 5.63 ± 0.23 under setting [1] and 5.81 ± 0.077 under setting [2].
For LSLESSPDAPDHTSETSHSPLYAD [PLEKHN1], the protein stability index is, setting by setting: under setting [1], 5.47 ± 0.16; under setting [2], 5.38 ± 0.24.
The like results for LSSVPSEAQISDPFAPEPTPPTTT [SNAP91] were, in that order, 5.38 ± 0.079 and 5.3 ± 0.2.
On the same counts, the results for LSTIEELIKDAIVSTQPAMMVNLR [C2CD2L] are 2.2 ± 0.29 and 2.35 ± 0.17.
In turn, LSTLAGIRVMVHGRNHTPFLGHHS [SCNN1D] came in with a protein stability index under setting [1] of 2.69 ± 0.28 and a protein stability index under setting [2] of 2.64 ± 0.23.
